Measured values taken from patent EP2254592B1.

Target: purified folded MHC-complex (Example 57)
Experiment: sandwich ELISA, W6/32 coated, HRP anti-β2m detection, OD450

For “W6/32 mouse-anti-HLA-ABC antibody (Dako M0736)”, the OD450 ratio to the negative control β2m was greater than 6 fold.
